Results reported in PMC4683182, “Global Regulator IscR Positively Contributes to Antimonite Resistance and Oxidation in Comamonas testosteroni S44”.
Where a chain is given by its changes, count along the chain named.

T1: IscR (His-tagged) (Comamonas testosteroni S44, UniProt A0A0L7MDB4 1-178)
T1 sequence: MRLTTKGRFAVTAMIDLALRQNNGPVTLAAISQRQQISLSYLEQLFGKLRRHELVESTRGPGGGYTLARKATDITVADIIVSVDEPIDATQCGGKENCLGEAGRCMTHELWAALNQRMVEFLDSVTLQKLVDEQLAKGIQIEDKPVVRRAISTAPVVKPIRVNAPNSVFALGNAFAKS

B1: Site A* 30-bp (dsDNA)
DNA 1: CTGTTACCCGACAAAGCTGGCGGGGAATGT
DNA 2: ACATTCCCCGCCAGCTTTGTCGGGTAACAG
B2: Site A 30-bp (dsDNA)
DNA 1: CTGTTACCCGACAAAATTGATGGGGAATGT
DNA 2: ACATTCCCCATCAATTTTGTCGGGTAACAG
B3: Site B* 30-bp (dsDNA)
DNA 1: GATGCGCTCGCCTCAAACACTCAACAACAA
DNA 2: TTGTTGTTGAGTGTTTGAGGCGAGCGCATC
B4: Site B 30-bp (dsDNA)
DNA 1: B3 DNA 1 with G4A, C5T, G6A
DNA 2: B3 DNA 2 with C25T, G26A, C27T

Molecular target: T1, IscR (His-tagged)
Assay: EMSA; 100 mM HEPES pH 7.6, 5 mM EDTA, 50 mM (NH4)2SO4, 5 mM DTT, 1% (w/v) Tween 20, 150 mM KCl; 30 min at 30 C; 20 uL; 6% native PAGE, ethidium bromide
Conditions: protein: recombinant; tags: His-tag (pET-28a(+)); chain copies: 2

Binder	binding result
B1	no binding
B2	binds
B3	no binding
B4	binds
